Changes are numbered by the printed parent chain.
Legend:
Test in all cases: flow cytometry, alanine-scan library in HEK-293T, with cytochalasin B
hsGLUT4 G65A = target: T1, hsGLUT4 G65A (human, UniProt P14672 1-509)
T1 sequence: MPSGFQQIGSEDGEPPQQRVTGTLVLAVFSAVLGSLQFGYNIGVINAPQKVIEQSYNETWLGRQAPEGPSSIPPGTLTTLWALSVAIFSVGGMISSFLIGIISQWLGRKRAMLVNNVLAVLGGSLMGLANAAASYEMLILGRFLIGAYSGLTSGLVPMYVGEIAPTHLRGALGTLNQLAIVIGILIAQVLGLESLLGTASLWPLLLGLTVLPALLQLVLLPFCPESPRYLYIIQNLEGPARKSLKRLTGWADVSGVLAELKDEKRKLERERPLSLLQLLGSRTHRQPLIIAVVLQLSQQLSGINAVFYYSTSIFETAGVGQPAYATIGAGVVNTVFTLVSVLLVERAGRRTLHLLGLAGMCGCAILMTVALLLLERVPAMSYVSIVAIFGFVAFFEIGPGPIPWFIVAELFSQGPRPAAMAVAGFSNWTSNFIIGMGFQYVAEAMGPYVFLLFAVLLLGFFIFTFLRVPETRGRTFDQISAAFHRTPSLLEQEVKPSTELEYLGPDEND
Experimental: (§1) Because of the state-dependence of the isolated MAbs, we next wished to understand the mechanism by which each MAb could recognize GLUT4 in its different conformations. The residues required for binding of each MAb were determined using shotgun mutagenesis comprehensive alanine scanning (Davidson E & Doranz B J (2014) A High-Throughput Shotgun Mutagenesis Approach to Mapping B-cell Antibody Epitopes. Immunology, which is hereby incorporated by reference in its entirety). All residues of hsGLUT4 were individually mutated to alanine, with existing alanines changed to serines. Mutations were obtained for 508 of the 509 residues of GLUT4 (excluding the initiating methionine). The entire mutation library was transfected into human HEK-293T cells in a 384-well array format (one clone per well) and assessed for immunoreactivity using high-throughput flow cytometry.
(§2) HEK-293T cells were transfected by CaPO₄ with plasmids in 6-well culture plates (Falcon) at 750,000 cells/well. At 48 hours post transfection, cells were stained with anti-V5 and anti-GLUT4 MAbs (purified scFv, 2 μg/ml) followed by biotinylated goat anti-mouse or human antibody (1:500) and streptavidin-PerCP (1:500). Fluorescence was detected using an Intellicyt high-throughput flow cytometer (HTFC; Intellicyt, Albuquerque, N. Mex.). For cell permeabilization, cells were treated with saponin at 0.1% in PBS for 20 minutes. To discriminate intact (live) and permeabilized (dead) cells without the use of detergent, propidium iodide (PI) was added to HEK-293T cells at 1 ug/ml just prior to flow cytometry. Where indicated, cytochalasin B (Sigma) was used at a final concentration of 10 uM and phloretin (Sigma) was used at a final concentration of 100 uM, each added in 10% NGS for 30 minutes prior to antibody staining as well as included with the primary antibody.

hsGLUT4 Q298A = target: T2, hsGLUT4 Q298A (human, UniProt P14672 1-509)
T2 sequence: T1 sequence with A65G, Q298A
Experimental: as §1, §2

hsGLUT4 G414A = target: T3, hsGLUT4 G414A (human, UniProt P14672 1-509)
T3 sequence: T1 sequence with A65G, G414A
Experimental: as §1, §2

hsGLUT4 E507A = target: T4, hsGLUT4 E507A (human, UniProt P14672 1-509)
T4 sequence: T1 sequence with A65G, E507A
Experimental: as §1, §2

% of binding to wild type GLUT4 (hsGLUT4 G65A): 95%
% of binding to wild type GLUT4 (hsGLUT4 Q298A): 107%
% of binding to wild type GLUT4 (hsGLUT4 G414A): 23%
% of binding to wild type GLUT4 (hsGLUT4 E507A): 97%
B1: AB102 (Fc fusion)
scFv: ALTQPSSVSANLGGTVKITCSGGGSYGYGWYQQKSPGSAPVTVIYSNDQRPSDIPSRFSGSKSGSTATLTITGVRAEDEAIYYCGSTDSDYVGIFGAGTTLTVLGQSSRSSGGGGSSGGGGSAVTLDESGGGLQTPGGTLSLVCKASGFDFSSYATIWVRQAPGKGLEWVAGISGTGTGSSTGYAPAVKGRATISRDNGQSTVRLQLNNLRAEDTGSYFCAKSTGYGDSWIYPDSIDAWGHGTEVIVSS
notes: also called MAb AB102; not shown: Fc fragment of human IgG1, cloned in frame with the scFv
